The test has as its target LexA-FKBP12 fusion protein (human FKBP12, bait plasmid pIC504) (human, UniProt P62942 1-104). The test can be described thus: cell-based or functional assay.

Sequence of LexA-FKBP12 fusion protein (human FKBP12, bait plasmid pIC504) (P62942 other isoform, or with tags, fused parts or gaps limits assumed): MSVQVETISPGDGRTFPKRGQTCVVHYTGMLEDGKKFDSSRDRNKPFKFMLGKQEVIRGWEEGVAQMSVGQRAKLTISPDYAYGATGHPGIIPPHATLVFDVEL

B1: human RAPT1 rapamycin-binding domain fused to the VP16 activation domain (other)
chain: VSEELIRVAILWHEMWHEGLEEASRLYFGERNVKGMFEVLEPLHAMMERGPQTLKETSFNQAYGRDLMEAQEWCRKYMKSGNVKDLTQAWDLYYHVFRRISKQLPQLTSLELQYVSPKLLMCRDLELAVPGTYDPNQPIIRIQSIAPSLQVITSKQRPRKLTLMGSNGHEFVF
B1: the “β-galactosidase activity (lacZ reporter, chemiluminescent substrate)” value is roughly 1000 fold.

Source of the values: patent US20050059803A1 (ARIAD GENE THERAPEUTICS, published 2005).
